Data on one substance can be found in US20260242448A1.

The assay deals with S protein of the SARS-CoV-2 prototype strain on pseudo-virus (SARS-CoV-2 prototype strain) (UniProt P0DTC2). Briefly: cell-based or functional assay.

Sequence of LY-CoV1404 (antibody) (VH): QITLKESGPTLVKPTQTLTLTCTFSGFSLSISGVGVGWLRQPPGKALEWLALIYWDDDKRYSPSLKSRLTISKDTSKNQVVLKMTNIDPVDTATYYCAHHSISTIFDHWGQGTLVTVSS
Sequence of LY-CoV1404 (antibody) (VL): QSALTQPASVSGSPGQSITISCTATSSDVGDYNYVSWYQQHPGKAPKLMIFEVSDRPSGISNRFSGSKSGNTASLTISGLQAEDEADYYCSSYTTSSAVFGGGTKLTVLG

In turn, LY-CoV1404 (antibody) registered a Neutralization activity (IC50) against pseudo-virus of 1.19 ng/mL.
